Measurements as given in paper PMC4650548.

Molecular target: NBS1 (UniProt O60934)
Assay: biotin-peptide streptavidin pull-down from lysate

“PHRF1 908-924 (from UniProt Q9P1Y6) pSDpTE peptide” was tested, and the “binding against the reference” value (reference: SDpTE peptide, sites S915) was “gained” and the “binding against the reference” value (reference: pSDTE peptide, sites T917) was “gained”.
